Results taken from patent US20220204611A1 (Amgen, published 2022).
Positions count from the first letter of the chain named.

T1: human TREM2 (human, UniProt Q9NZC2 19-174, limits assumed)
T1 sequence: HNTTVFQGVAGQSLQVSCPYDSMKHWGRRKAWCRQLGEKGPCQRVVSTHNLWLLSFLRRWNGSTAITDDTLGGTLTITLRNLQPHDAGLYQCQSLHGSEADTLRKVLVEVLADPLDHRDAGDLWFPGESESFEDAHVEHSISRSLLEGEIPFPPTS

B1: V6 (Fab, V domains shown)
VH: EVQLVQSGAEVKKPGESLKISCKGSGYSFTSMWIAWVRQMPGKGLEWMGIIYPGDSDTRYSPSFQGQVTISADKSISTAYLQWSSLKASDTAMYFCARQRTFYYDSSDYFDYWGQGTLVTVSS
VL: DIQMTQSPSSVSASVGDRVTITCRASQGISSWLAWYQQKPGKAPKLLIYAASSLQNGVPSRFSGSGSGTDFTLTISSLQPEDFATYFCQQADSFPRTFGQGTKLEIK
B2: V33 (Fab, V domains shown)
VH: B1 VH with M32Y, Y104G
VL: B1 VL
B3: V9 (Fab, V domains shown)
VH: B1 VH with M32Y, T101G
VL: B1 VL
B4: V7 (Fab, V domains shown)
VH: B1 VH with M32E
VL: B1 VL
B5: V31 (Fab, V domains shown)
VH: B1 VH with M32Y, D57E
VL: B1 VL
B6: V30 (Fab, V domains shown)
VH: B1 VH with Y27S, M32Y
VL: B1 VL
B7: V35 (Fab, V domains shown)
VH: B1 VH with M32Y
VL: B1 VL with D92Y
B8: V54 (Fab, V domains shown)
VH: B1 VH with M32Q
VL: B1 VL
B9: V46 (Fab, V domains shown)
VH: B1 VH with M32Y
VL: B1 VL with S53T
B10: V43 (Fab, V domains shown)
VH: B1 VH with M32Y, D57G
VL: B1 VL
B11: V18 (Fab, V domains shown)
VH: B1 VH with M32Y, W33H
VL: B1 VL
B12: V20 (Fab, V domains shown)
VH: B1 VH with M32Y, I50R
VL: B1 VL
B13: V10 (Fab, V domains shown)
VH: B1 VH with M32Y
VL: B1 VL with A50S
B14: V47 (Fab, V domains shown)
VH: B1 VH with M32Y
VL: B1 VL with R96M
B15: V19 (Fab, V domains shown)
VH: B1 VH with M32S
VL: B1 VL
B16: V11 (Fab, V domains shown)
VH: B1 VH with M32Y
VL: B1 VL with D92A
B17: V44 (Fab, V domains shown)
VH: B1 VH with M32Y, G54S
VL: B1 VL
B18: V56 (Fab, V domains shown)
VH: B1 VH with M32Y, S61Q
VL: B1 VL
B19: V22 (Fab, V domains shown)
VH: B1 VH with M32Y
VL: B1 VL with A50R
B20: V55 (Fab, V domains shown)
VH: B1 VH with M32Y, R59I, F64H
VL: B1 VL
B21: V42 (Fab, V domains shown)
VH: B1 VH with M32A
VL: B1 VL
B22: V8 (Fab, V domains shown)
VH: B1 VH with M32Y, R59K
VL: B1 VL
B23: V21 (Fab, V domains shown)
VH: B1 VH with M32Y, Y109F
VL: B1 VL
B24: V45 (Fab, V domains shown)
VH: B1 VH with M32Y
VL: B1 VL with W32F
B25: V23 (Fab, V domains shown)
VH: B1 VH with M32Y
VL: B1 VL with R96L
B26: V34 (Fab, V domains shown)
VH: B1 VH with M32Y
VL: B1 VL with N56D
B27: V32 (Fab, V domains shown)
VH: B1 VH with M32Y, P62N
VL: B1 VL

molecular target: T1, human TREM2; test: yeast-displayed Fab FACS, 1st screen 110 nM

| binding signal fold over 6E7 parental [fold] | Binder |
| --- | --- |
| 0.2 | B1 |
| 0.23 | B2 |
| 0.67 | B3 |
| 0.11 | B4 |
| 0.61 | B5 |
| 0.79 | B6 |
| 0.21 | B7 |
| 0.55 | B8 |
| 0.83 | B9 |
| 0.2 | B10 |
| 0.17 | B11 |
| 0.18 | B12 |
| 0.76 | B13 |
| 0.42 | B14 |
| 0.59 | B15 |
| 0.79 | B16 |
| 0.65 | B17 |
| 0.23 | B18 |
| 0.3 | B19 |
| 0.24 | B20 |
| 0.45 | B21 |
| 0.28 | B22 |
| 0.76 | B23 |
| 0.43 | B24 |
| 0.4 | B25 |
| 0.34 | B26 |
| 0.82 | B27 |

molecular target: T1, human TREM2; test: yeast-displayed Fab FACS, 2nd screen 100 nM

| binding signal fold over 6E7 parental [fold] | Binder |
| --- | --- |
| 0.56 | B1 |
| 0.34 | B2 |
| 0.54 | B3 |
| 0.32 | B4 |
| 0.73 | B5 |
| 0.72 | B6 |
| 0.29 | B7 |
| 0.54 | B8 |
| 0.96 | B9 |
| 0.33 | B10 |
| 0.42 | B11 |
| 0.52 | B12 |
| 0.7 | B13 |
| 0.47 | B14 |
| 0.48 | B15 |
| 0.42 | B16 |
| 0.52 | B17 |
| 0.59 | B18 |
| 0.71 | B19 |
| 0.66 | B20 |
| 0.41 | B21 |
| 0.77 | B22 |
| 0.68 | B23 |
| 0.53 | B24 |
| 0.4 | B25 |
| 1.02 | B26 |
| 0.89 | B27 |
